# Results as given in patent US20100086997A1 (published 2010).
# B1: Fc-fused recombinant human P75 (Fc fusion, UniProt P08138 29-250, looked up)
# chain: KEACPTGLYTHSGECCKACNLGEGVAQPCGANQTVCEPCLDSVTFSDVVSATEPCKPCTECVGLQSMSAPCVEADDAVCRCAYGYYQDETTGRCEACRVCEAGSGLVFSCQDKQNTVCEECPDGTYSDEANHVDPCLPCTVCEDTERQLRECTRWADAECEEIPGRWITRSTPPEGSDSTAPSTQEPEAPPEQDLIASTVAGVVTTVMGSSQPVVTRGTTDN
# notes: Bought from R&D Systems or made in-house; also called p75 neurotrophin receptor; LNGFR; not shown: Fc part
# What was measured:
# Assay in all cases: SPR (Biacore 3000), Fc-fused receptor amine-coupled to CM5 chip, ligand in solution, 25 C
# [1] = biological target: B1
# Description: (§1) A standard amine-coupling protocol was used in HBS-EP running buffer at 5 μl/min and involved three steps. […]. First, flow cells were activated with a 7-minute injection of a freshly prepared mixture of 200 mM EDC in 50 mM NHS; this step converted the chip's carboxylic acid groups to reactive esters. Next, receptors were diluted to ˜10 μg/mL in 10 mM sodium acetate buffer at pH 4.5 and coupled to the chip until the desired level had been reached. Finally, excess reactive esters were blocked with a 7-minute injection of 1M sodium ethanolamine-HCl (pH 8.5).
# (§2) The Fab fragment of antibody 200.38B8 (38B8) was diluted from 0.7-480 nM in 3-fold increments. Samples were injected for 30 seconds at 100 μl/min allowing dissociation times of up to 10 mins. After each binding cycle, receptor surfaces were regenerated with a mildly acidic cocktail (10 mM glycine-HCl (pH 4.0), 500 mM NaCl, and 20 mM EDTA). […] Kinetic rate constants (kon and koff) were determined by fitting the binding data globally to a mass transport model and binding affinities were calculated from their ratio, KD=koff/kon.
# [2] = biological target: T1, human TrkB-Fc fusion protein (human, UniProt Q16620 32-430)
# T1 construct: Bought from R&D Systems or made in-house; also called HuTrkB; Fc-fused recombinant human TrkB; not shown: Fc part
# T1 sequence (Q16620 32-430 limits assumed): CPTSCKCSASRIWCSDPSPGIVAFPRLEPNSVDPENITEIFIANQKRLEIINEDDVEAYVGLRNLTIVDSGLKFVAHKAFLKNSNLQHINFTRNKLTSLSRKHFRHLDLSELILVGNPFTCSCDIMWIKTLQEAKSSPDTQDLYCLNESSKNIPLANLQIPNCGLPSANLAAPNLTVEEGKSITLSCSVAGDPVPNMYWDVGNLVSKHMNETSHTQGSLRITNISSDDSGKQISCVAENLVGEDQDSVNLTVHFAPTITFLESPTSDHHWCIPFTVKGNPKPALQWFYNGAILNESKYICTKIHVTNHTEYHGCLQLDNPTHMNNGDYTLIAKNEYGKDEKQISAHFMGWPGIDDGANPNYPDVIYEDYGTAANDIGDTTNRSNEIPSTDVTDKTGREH
# Description: as §1, §2
# [3] = biological target: T2, Fc-fused recombinant human TrkC (human, UniProt Q16288 32-429)
# T2 construct: Bought from R&D Systems or made in-house; not shown: Fc part
# Description: as §1, §2
# [4] = biological target: T3, Fc-fused recombinant human TrkA (human, UniProt P04629-2 33-407, limits assumed)
# T3 construct: Bought from R&D Systems or made in-house; not shown: Fc part
# T3 sequence (P04629 other isoform, or with tags, fused parts or gaps limits assumed): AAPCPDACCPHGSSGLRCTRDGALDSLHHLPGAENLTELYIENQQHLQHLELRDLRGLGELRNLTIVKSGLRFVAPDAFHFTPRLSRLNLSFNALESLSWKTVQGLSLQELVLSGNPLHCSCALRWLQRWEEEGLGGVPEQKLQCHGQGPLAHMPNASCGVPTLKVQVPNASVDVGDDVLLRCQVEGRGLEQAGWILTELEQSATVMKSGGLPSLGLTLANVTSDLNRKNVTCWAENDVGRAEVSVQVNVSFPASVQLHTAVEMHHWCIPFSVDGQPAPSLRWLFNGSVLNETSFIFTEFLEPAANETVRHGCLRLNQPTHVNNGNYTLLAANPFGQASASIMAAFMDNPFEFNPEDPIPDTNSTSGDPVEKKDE
# Description: as §1, §2
# [5] = biological target: ProNGF (UniProt P01138 19-241)
# ProNGF, sequence (P01138 19-241): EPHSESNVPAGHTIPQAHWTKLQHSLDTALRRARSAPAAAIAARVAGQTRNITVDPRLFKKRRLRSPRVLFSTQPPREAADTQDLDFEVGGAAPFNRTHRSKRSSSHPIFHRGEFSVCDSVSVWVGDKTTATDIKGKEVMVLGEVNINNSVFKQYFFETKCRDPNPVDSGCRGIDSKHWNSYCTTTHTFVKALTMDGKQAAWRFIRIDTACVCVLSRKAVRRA
# Description: as §1, §2
binder,measurement,setting,value
"brain-derived neurotrophic factor (BDNF) (ligand, UniProt P23560 129-247, looked up) HSDPARRGELSVCDSISEWVTAADKKTAVDMSGGTVTVLEKVPVSKGQLKQYFYETKCNPMGYTKEGCRGIDKRHWNSQCRTTQSYVRALTMDSKKRIGWRFIRIDTSCVCTLTIKRGR",Kd,[1],< 2.1 nM
same,Kd,[2],< 0.034 nM
"NT4/5 (ligand, UniProt P34130 81-210, looked up) GVSETAPASRRGELAVCDAVSGWVTDRRTAVDLRGREVEVLGEVPAAGGSPLRQYFFETRCKADNAEEGGPGAGGGGCRGVDRRHWVSECKAKQSYVRALTADAQGRVGWRWIRIDTACVCTLLSRTGRA",Kd,[1],88 nM
same,koff,[1],0.305 s⁻¹
same,kon,[1],3.45e+06 M⁻¹ s⁻¹
same,binding result,[3],no binding (tested: 0.08-250 nM)
same,Kd,[4],17 nM
same,koff,[4],0.04 s⁻¹
same,kon,[4],2.1e+06 M⁻¹ s⁻¹
same,Kd,[2],< 0.2 nM
same,koff,[2],0.002 s⁻¹
same,kon,[2],> 1e+07 M⁻¹ s⁻¹
"NT3 (ligand, UniProt P20783 139-257, looked up, 'native ligands' bought from R&D Systems or made in-house) YAEHKSHRGEYSVCDSESLWVTDKSSAIDIRGHQVTVLGEIKTGNSPVKQYFYETRCKEARPVKNGCRGIDDKHWNSQCKTSQTYVRALTSENNKLVGWRWIRIDTSCVCALSRKIGRT",Kd,[2],< 4.4 nM
B1,Kd,[5],130 nM
same,koff,[5],0.0858 s⁻¹
same,kon,[5],658000 M⁻¹ s⁻¹
